Data taken from publication doi:10.1101/2021.01.12.426377 (bioRxiv, 2021).

Columns and labels:
[1] = molecular target: T1, FtsA(E14R) (E. coli, UniProt P0ABH0 1-420, E14R); assay: co-sedimentation
T1 sequence: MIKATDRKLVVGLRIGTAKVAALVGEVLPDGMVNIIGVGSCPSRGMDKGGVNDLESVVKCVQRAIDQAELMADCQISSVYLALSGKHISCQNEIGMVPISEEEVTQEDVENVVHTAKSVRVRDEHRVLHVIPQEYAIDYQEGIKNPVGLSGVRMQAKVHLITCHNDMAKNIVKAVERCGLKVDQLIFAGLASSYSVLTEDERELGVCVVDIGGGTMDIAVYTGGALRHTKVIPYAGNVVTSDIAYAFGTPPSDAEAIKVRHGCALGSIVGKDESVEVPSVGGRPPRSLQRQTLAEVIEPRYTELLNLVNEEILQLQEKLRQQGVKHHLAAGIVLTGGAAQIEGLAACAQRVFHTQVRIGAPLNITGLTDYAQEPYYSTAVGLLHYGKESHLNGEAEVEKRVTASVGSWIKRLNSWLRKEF

[2] = molecular target: the molecule itself; assay: negative-stain transmission electron microscopy

binding result [1]: binds
B1: FtsZ (Escherichia coli, wild type) (natural protein)
chain: MFEPMELTNDAVIKVIGVGGGGGNAVEHMVRERIEGVEFFAVNTDAQALRKTAVGQTIQIGSGITKGLGAGANPEVGRNAADEDRDALRAALEGADMVFIAAGMGGGTGTGAAPVVAEVAKDLGILTVAVVTKPFNFEGKKRMAFAEQGITELSKHVDSLITIPNDKLLKVLGRGISLLDAFGAANDVLKGAVQGIAELITRPGLMNVDFADVRTVMSEMGYAMMGSGVASGEDRAEEAAEMAISSPLLEDIDLSGARGVLVNITAGFDLRLDEFETVGNTIRAFASDNATVVIGTSLDPDMNDELRVTVVATGIGMDKRPEITLVTNKQVQQPVMDRYQQHGMAPLTQEQKPVAKVVNDNAPQTAKEPDYLDIPAFLRKQAD
binding result [2]: binds
